Reference: US20100204104A1

Legend:
TGF-β1 [1] = target: TGF-β1 (UniProt P01137); test: cell-based or functional assay
TGF-β3 [2] = target: T1, TGF-β3 (UniProt P10600); test: cell-based or functional assay
T1 sequence (looked up): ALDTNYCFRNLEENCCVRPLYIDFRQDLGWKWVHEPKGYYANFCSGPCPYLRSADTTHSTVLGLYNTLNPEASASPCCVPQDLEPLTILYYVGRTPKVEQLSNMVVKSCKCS

TGF-β1 [3] = target: TGF-β1 (UniProt P01137); test: SPR (Biacore), TGF-β1 on chip, HEK 293-produced sRII-9Gly 1.2-90 nM injected, 1:1 model
TGF-β3 [4] = target: T1, TGF-β3; test: SPR (Biacore), TGF-β3 on chip, HEK 293-produced sRII-9Gly 1.2-90 nM injected, 1:1 model
TGF-β1 [5] = target: TGF-β1 (UniProt P01137); test: SPR (Biacore), TGF-β1 on chip, CHO-produced sRII-9Gly (lot 1) 1.2-90 nM injected, 1:1 model
TGF-β1 [6] = target: TGF-β1 (UniProt P01137); test: SPR (Biacore), TGF-β1 on chip, CHO-produced sRII-9Gly (lot 2) 1.2-90 nM injected, 1:1 model
TGF-β3 [7] = target: T1, TGF-β3; test: SPR (Biacore), TGF-β3 on chip, CHO-produced sRII-9Gly (lot 1) 1.2-90 nM injected, 1:1 model
TGF-β3 [8] = target: T1, TGF-β3; test: SPR (Biacore), TGF-β3 on chip, CHO-produced sRII-9Gly (lot 2) 1.2-90 nM injected, 1:1 model

Sequence of UniProt P01137 (P01137 279-390 limits assumed): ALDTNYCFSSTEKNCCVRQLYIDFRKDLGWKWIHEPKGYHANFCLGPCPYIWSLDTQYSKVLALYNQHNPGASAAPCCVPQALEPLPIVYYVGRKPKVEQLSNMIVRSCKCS

IC50 (nM), A549/IL-11 cell bioassay, CHO-produced sRII-9Gly Lot 9 (TGF-β1 [1]): 0.02 nM | IC50 (nM), A549/IL-11 cell bioassay, CHO-produced sRII-9Gly Lot 10 (TGF-β1 [1]): 0.018 nM | IC50 (nM), A549/IL-11 cell bioassay, CHO-produced sRII-9Gly Lot 11 (TGF-β1 [1]): 0.014 nM | IC50 (nM), A549/IL-11 cell bioassay, CHO-produced sRII-9Gly Lot 12 (TGF-β1 [1]): 0.015 nM | IC50 (nM), A549/IL-11 cell bioassay, CHO-produced sRII-9Gly Lot 13 (TGF-β1 [1]): 0.016 nM | IC50 (nM), A549/IL-11 cell bioassay, sRII-9Gly Lot 4 (TGF-β1 [1]): 0.039 nM | IC50 (nM), A549/IL-11 cell bioassay, sRII-9Gly Lot 5 (TGF-β1 [1]): 0.053 nM | IC50 (nM), A549/IL-11 cell bioassay, sRII-9Gly Lot 6 (pH 7.0) (TGF-β1 [1]): 0.054 nM | IC50 (nM), A549/IL-11 cell bioassay, sRII-9Gly Lot 7 (pH 8.5) (TGF-β1 [1]): 0.062 nM | IC50 (nM), A549/IL-11 cell bioassay, sRII-9Gly Lot 8 (pH 9.0) (TGF-β1 [1]): 0.047 nM | IC50 (ng/ml), A549/IL-11 cell bioassay, sRII-9Gly Lot 4 (TGF-β1 [1]): 1.34 ng/mL | IC50 (ng/ml), A549/IL-11 cell bioassay, sRII-9Gly Lot 5 (TGF-β1 [1]): 1.8 ng/mL | IC50 (ng/ml), A549/IL-11 cell bioassay, sRII-9Gly Lot 6 (pH 7.0) (TGF-β1 [1]): 1.82 ng/ml | IC50 (ng/ml), A549/IL-11 cell bioassay, sRII-9Gly Lot 7 (pH 8.5) (TGF-β1 [1]): 2.12 ng/ml | IC50 (ng/ml), A549/IL-11 cell bioassay, sRII-9Gly Lot 8 (pH 9.0) (TGF-β1 [1]): 1.59 ng/ml | IC50 (nM), A549/IL-11 cell bioassay, CHO-produced sRII-9Gly Lot 9 (TGF-β3 [2]): 0.035 nM | IC50 (nM), A549/IL-11 cell bioassay, CHO-produced sRII-9Gly Lot 10 (TGF-β3 [2]): 0.29 nM | IC50 (nM), A549/IL-11 cell bioassay, CHO-produced sRII-9Gly Lot 11 (TGF-β3 [2]): 0.008 nM | IC50 (nM), A549/IL-11 cell bioassay, CHO-produced sRII-9Gly Lot 12 (TGF-β3 [2]): 0.07 nM | IC50 (nM), A549/IL-11 cell bioassay, CHO-produced sRII-9Gly Lot 13 (TGF-β3 [2]): 0.018 nM | Kd (TGF-β1 [3]): 8.2 nM | koff (TGF-β1 [3]): 0.0011 s⁻¹ | Kd (TGF-β3 [4]): 2.1 nM | koff (TGF-β3 [4]): 0.00034 s⁻¹ | Kd (TGF-β1 [5]): 6.3 nM | koff (TGF-β1 [5]): 0.00117 s⁻¹ | Kd (TGF-β1 [6]): 9.8 nM | koff (TGF-β1 [6]): 0.0011 s⁻¹ | Kd (TGF-β3 [7]): 5 nM | koff (TGF-β3 [7]): 0.00131 s⁻¹ | Kd (TGF-β3 [8]): 6.8 nM | koff (TGF-β3 [8]): 0.00085 s⁻¹
B1: sRII-9Gly fusion protein (receptor)
chain: IPPHVQKSVNNDMIVTDNNGAVKFPQLCKFCDVRFSTCDNQKSCMSNCSITSICEKPQEVCVAVWRKNDENITLETVCHDPKLPYHDFILEDAASPKCIMKEKKKPGETFFMCSCSSDECNDNIIFSEEYNTSNPDLHMGGGGGGGGGIDIPPHVQKSVNNDMIVTDNNGAVKFPQLCKFCDVRFSTCDNQKSCMSNCSITSICEKPQEVCVAVWRKNDENITLETVCHDPKLPYHDFILEDAASPKCIMKEKKKPGETFFMCSCSSDECNDNIIFSEEYNTSNPDL
